Data taken from paper PMC10238197, “Deafness‐Associated ADGRV1 Mutation Impairs USH2A Stability through Improper Phosphorylation of WHRN and WDSUB1 Recruitment” (Advanced Science, 2023).

B1: Flag-WHRN (wild type) [mouse] / GFP-WDSUB1 (WD repeat, SAM, and U-box domain-containing protein 1) [mouse] (parent)
chain 1: MNAQLDGLSVSSSSTGSLGSAAAAAGGGGGAGLRLLSANVRQLHQALTALLSEPEREQFTHCLNAYHARRNVFDLVRTLRVLLDSPVKRRLLPMLRLVIPRSDQLLFDQYTAEGLYLPATTPYRQPAWAAPDGAGPGEVRLVSLRRAKAHEGLGFSIRGGSEHGVGIYVSLVEPGSLAEKEGLRVGDQILRVNDKSLARVTHAEAVKALKGSKKLVLSVYSAGRIPGGYVTNHIYTWVDPQGRSTSPPSSLPQPHGSTLRQREDDRRSTLHLLQSGDEKKVNLVLGDGRSLGLTIRGGAEYGLGIYITGVDPGSEAESSGLKVGDQILEVNGRSFLNILHDEAVKLLKSSRHLILTVKDVGRLPHARTTVDQTKWIASSRIGESVANSAGFPGDHTEEGTSKPGFYKGPAGSQVTLSSLGNQTRALLDDQARHLLTEQERATMMYYLAQYRGGTISVEAMVMALFELLNTHAKFSLLSEVRSIISPQDLDRFDHLVLRREIESMKARQPPGPGVGDTYSMVSYSDTGSSTGSHGTSTTVSSARERLLWLIDLMENTLDLEGTGETTQGSTNALPDVSVDDVKSPSEDLPGIKPPPPPPPLAQGHDRLLGQPRKPGREDPAPLSSAAHSGIVFSAPRNRSPPPGTAPTPGPSSAQDSPSSPIYASISHANPSSRKPLDTHLALVNQHPIGPFPRVQSPPHLKSPPAETPGAGACLPPPSPSEHPDAVGANQHFVLVEVHRPDSEPDVNEVRALPQTRTASTLSQLSDSGQTLSEDSGVDAGETEASTSGRGRQTASAKNKNGKEQPRTERTAEGANKPPGLLEPTSTLVRVRKSAATLGIAIEGGANTRQPLPRIVTIQRGGSAHNCGQLKVGHVILEVNGQTLRGKEHKEAARIIAEAFKTKERDYIDFLVTEFNVML
chain 2: MVRLIHTLADHGDDVSCCAFSAALLATCSLDKTIRLYSLSDFAELPYSPLKFHTYAVHCCCFSPSGHVLASCSTDGTTVLWSSHSGHTLTVLEQPGGSPVRVCCFSPDSAYLASGAADGSIALWNAQTYKLYRCGSVKDSSLVACAFSPDGGLFVTGSSGGDLTVWDDRMRCLHSEKAHDLGITCCSFSSQPLSGGEGLQSYQLASCGQDCEIKLWAVTITRVLGFELKYKSTLSGHCAPVLACAFSHDGKMLASGSVDKSVIIHGIGPQSVLHTLTQHTRYVTTCAFAPNTLLLATGSMDKTVNIWQFDLETPCQGSMNDPLKHFTEEWSEEDVSVWLRAQGLEDLVGIFRANNIDGKELLHLTKESLAGDLKIESLGLRSKVLRSIEELRAKMDSLSSGIPDEFICPITRELMKDPVIASDGYSYEREAMESWIHKKKRTSPMTNLALPSLVLTPNRTLKMAINRWLETHEK

Variants of: B1
Assay: co-immunoprecipitation (band intensity quantified)
Settings: with GFP-WDSUB1 (WD repeat, SAM, and U-box domain-containing protein 1) [mouse]; HEK293 cells; n = 3; parent: 1; read off a plot

chain 1 S85E was tested. Which ratio to parent did it give?
The ratio to parent was 1.

Which ratio to parent does the source give for chain 1 S156E here?
The ratio to parent was 1.8.

chain 1 S384E was tested. Which ratio to parent did it give?
The ratio to parent was 1.

For chain 1 S246E, which ratio to parent is on record?
Its ratio to parent is 2.1.

With chain 1 S156E S246E as the variant, how does the ratio to parent read?
Its ratio to parent is 2.6.

For chain 1 S37E, which ratio to parent is on record?
The ratio to parent was 1.
